Measured values published in patent US20240374682A1, “PHARMACEUTICAL USE OF HYPOXIA-INDUCIBLE LIPID DROPLET-ASSOCIATED PROTEIN OR TRUNCATED FRAGMENT THEREOF” (Westlake University, priority 2021, published 2024).

Legend:
ES-2 cells = experiment: APOE3-3xHA uptake by recipient ES-2 cells with synthesized HILPDA peptides (immunofluorescence); format: cell-based; conditions: 10 μM peptide, 24 hours, versus solvent (DMSO)
Description: (§1) 1) HEK293T cells were cultured with DMEM medium in a 10 cm cell culture dish.
2) A plasmid of APOE3-3xHA gene was expressed in the above cells.
(§2) 3) After 12 hours, the old medium in 1) was replaced with fresh DMEM cell culture medium.
4) After further culturing for 48 hours, the media of the cells cultured in 3) were collected. respectively, and these media were used to directly culture the recipient ES-2 cells (Cat. No.: TCHu111. Cell Bank of Typical Culture Collection Committee of Chinese Academy of Sciences/Cell Resource Center of Shanghai Institutes for Life Sciences. Chinese Academy of Sciences) that had been pre-digested with 0.25% EDTA trypsin, and at the same time, 10 μM truncated sequence HILPDA P01, HILPDA P03 or the corresponding volume of solvent (DMSO) was added to the cell culture media.
5) After culturing for 24 hours, anti-HA antibody (Cat. No.: ab9110, abcam: a fusion protein for detecting APOE3-3xHA gene expression) was used to carry out immunofluorescent staining experiments.

[1] = system: HuH-7 cells, Hep-G2 cells or 786-0 cells; experiment: Uptake of Dil-labelled human low-density lipoprotein by cells (flow cytometry); format: cell-based; conditions: 10 μM peptide, 5 μg/mL LDL-Dil, 3 hours, versus solvent (DMSO)
Description: 1) HuH-7 cells (Cat. No.: TCHu182. Cell Bank of Type Culture Collection Committee of Chinese Academy of Sciences/Cell Resource Center of Shanghai Institutes for Life Sciences. Chinese Academy of Sciences) and Hep-G2 cells (Cat. No.: HB-8065. ATCC. USA) or 786-0 cells (Cat. No.: Cell Bank TCHul86. Cell Bank of Type Culture Collection Committee of Chinese Academy of Sciences/Cell Resource Center of Shanghai Institutes for Life Sciences, Chinese Academy of Sciences) were cultured with DMEM medium in a 10 cm cell culture dish.
2) Low-density lipoprotein from human plasma and Dil complex (Cat. No. L3482. Invitrogen) were added at a final concentration of 5 μg/mL to the above cells, and at the same time. 10 μM HILPDA P01, truncated sequence P03 of HILPDA or corresponding volume of solvent (DMSO) was added to the cell culture medium.
3) After culturing for 3 hours, the cells were washed twice with PBS, and the flow cytometry experiment was performed, and the Dil signal intensity of the cells was detected on the PE channel (as shown in FIGS. 8A to 8D).

SD rats [2] = experiment: APOE content in rat cerebrospinal fluid after lateral ventricle injection (ELISA); format: in vivo; conditions: 0.8 mg/kg lateral ventricle, 4 hours after injection, versus solvent
Description: 1) SD rats (8-10 weeks, male, Shanghai Family Planning Institute) were injected through lateral ventricle with the truncated sequence P04 of HILPDA at a dose of 0.8 mg/kg rat body weight or with the same amount of solvent (50% DMSO+50% 0.9% NaCl) in total of 20 μL:
2) After 4 hours of injection, the cerebrospinal fluid of the rat was collected:
3) ELISA kit (Cat. No.: E-EL-R1230c, ELabScience) was used to detect the apolipoprotein APOE content in the cerebrospinal fluid.

[3] = system: recipient cells (786-O, 769-P, HuH7, ES-2); experiment: APOE uptake by recipient cells from conditioned medium of HEK293T cells co-expressing HILPDA-Flag and APOE-3xHA (immunofluorescence); format: cell-based; conditions: 24 hours
Description: as §1
(§3) 2) The above cells were separately co-transfected with:
GFP-Flag expressing plasmid and APOE2-3xHA plasmid,
GFP-Flag expressing plasmid and APOE3-3xHA plasmid,
GFP-Flag expressing plasmid and APOE4-3xHA plasmid,
HILPDA-Flag expressing plasmid and APOE2-3xHA plasmid,
HILPDA-Flag expressing plasmid and APOE3-3xHA plasmid, and
HILPDA-Flag expressing plasmid and APOE4-3xHA plasmid.
as §2
4) After further culturing for 48 hours, the media of the cultured cells in 3) were collected, respectively, and these media were used to directly culture the recipient cells, such as 786-O (Cat. No.: Cell Bank TCHu186, Cell Bank of Type Culture Collection Committee of Chinese Academy of Sciences/Cell Resource Center of Shanghai Institutes for Life Sciences, Chinese Academy of Sciences), 769-P (Cat. No.: Cell Bank TCHu215, Cell Bank of Type Culture Collection Committee of Chinese Academy of Sciences/Cell Resource Center of Shanghai Institutes for Life Sciences, Chinese Academy of Sciences), HuH7 (Cat. No.: TCHu182, Cell Bank of Type Culture Collection Committee of Chinese Academy of Sciences/Cell Resource Center of Shanghai Institutes for Life Sciences, Chinese Academy of Sciences), ES-2 (Cat. No.: TCHu111, Cell Bank of Type Culture Collection Committee of Chinese Academy of Sciences/Cell Resource Center of Shanghai Institutes for Life Sciences, Chinese Academy of Sciences) wild-type cells, that had been pre-digested with trypsin containing 0.25% EDTA.
5) After culturing for 24 hours, anti-Flag (Cat. No.: F1804, sigma: for detecting GFP-Flag or HILPDA-Flag fusion protein) and anti-HA antibody (Cat. No.: ab9110, abcam: for detecting fusion proteins expressed by three different alleles of APOE2-3xHA, APOE3-3xHA or APOE4-3xHA) were used to perform immunofluorescent staining experiments.

[4] = system: neuronal cells obtained by induction and differentiation of human embryonic stem cells; experiment: APOE uptake by recipient neuronal cells from conditioned medium (western blotting); format: cell-based; conditions: conditioned HEK293T medium, 24 hours
Description: as §1
2) The above cells separately were: transfected to express APOE2-3xHA plasmid, transfected to express APOE3-3xHA plasmid, transfected to express APOE4-3xHA plasmid, co-transfected with plasmid expressing HILPDA-Flag and APOE2-3xHA plasmid, co-transfected with plasmid expressing HILPDA-Flag and APOE3-3xHA plasmid, and co-transfected with plasmid expressing HILPDA-Flag and APOE4-3xHA plasmid.
as §2
4) After further culturing for 48 hours, the media of the cultured cells in 3) were collected, respectively, and these media were used to directly culture recipient neuronal cells, wherein the neuronal cells were obtained by induction and differentiation of human embryonic stem cells (WA09-H9 Wincell Research Institute) through STEMdiff Neural (STEMCELL Technologits) differentiation system.
5) After culturing for 24 hours, anti-Actin (Cat. No.: Proteintech, 66009-1-Ig) and anti-HA antibody (Cat. No.: ab9110, abcam: used to detect three fusion proteins expressed by different alleles APOE2-3xHA, APOE3-3xHA or APOE4-3xHA) were used to perform western blotting.

mouse brain slices = experiment: APOE3 uptake by mouse brain slices from conditioned medium (immunofluorescence); format: cell-based; conditions: conditioned HEK293T medium, 48 hours, versus GFP-Flag + APOE3-3xHA
Description: as §1, §3
plasmid expressing GFP-FLAG and APOE3-3xHA plasmid, and
plasmid expressing HILPDA-Flag and APOE3-3xHA plasmid,
as §2
4) After further culturing for 48 hours, the media of the cultured cells in 3) were collected, respectively, and these media were used to directly culture mouse brain slices, wherein the brain slices were obtained by slicing fresh mouse brains to reach a thickness of 150 μm by a vibrating microtome. The slices were cultured in DMEM medium.
5) After culturing for 48 hours, immunofluorescent staining experiments were carried out with anti-HA antibody (Cat. No.: ab9110, abcam: for detecting APOE3-3xHA fusion protein).

SD rats [5] = experiment: Low-density lipoprotein cholesterol level in rat plasma after tail vein injection; format: in vivo; conditions: 1.5 mg/kg tail vein, 5 hours after injection, versus solvent
Description: 1) SD rats (8-10 weeks old, female, Shanghai Family Planning Institute) were injected through tail vein with HILPDA P02 at a dose of 1.5 mg/kg rat body weight or the same amount of solvent (50% DMSO+50% 0.9% NaCl) in total of 100 μL:
2) After 5 hours of injection, about 1 mL of blood was collected from the tail vein, and the collected blood was placed in an EDTA-K2 anticoagulant tube and underwent ice-bath for 1 hour, then centrifuged at 2000*g at 4° C., for 10 minutes, and the supernatant plasma was collected:
3) A biochemical analyzer (Mindray 240) was used to analyze the low-density lipoprotein cholesterol content in the plasma (as shown in FIG. 10).

HILPDA P03: synthesized truncated human HILPDA, SEQ ID NO: 13 (MKHVLNLYLLGVVLTLLSIF) (truncated fragment of human HILPDA)
APOE3-3xHA uptake by recipient cells (anti-HA fluorescent signal) (ES-2 cells): Promote the Clearance | uptake of human low-density lipoprotein particles (Dil signal intensity) [1]: Promote the Uptake

HILPDA P04: synthesized truncated rat HILPDA, SEQ ID NO: 14 (MKYMLNLYVLGVMLTLLSIF) (truncated fragment of rat HILPDA)
content of apolipoprotein APOE in the cerebrospinal fluid (SD rats [2]): significantly decreased

B1: HILPDA-Flag: human HILPDA protein fused with FLAG tag, expressed in HEK293T cells and secreted into culture medium (protein, UniProt Q9Y5L2 1-63, looked up)
Hypoxia-inducible lipid …: MKHVLNLYLLGVVLTLLSIFVRVMESLEGLLESPSPGTSWTTRSQLANTEPTKGLPDHPSRSM
modifications: FLAG tag
notes: human HILPDA protein fused with FLAG tag, expressed in HEK293T cells and secreted into culture medium
APOE2-3xHA uptake by recipient cells (anti-HA fluorescent signal) ([3]; versus GFP-Flag + APOE2-3xHA): more and stronger fluorescent signals | APOE3-3xHA uptake by recipient cells (anti-HA fluorescent signal) ([3]; versus GFP-Flag + APOE3-3xHA): more and stronger fluorescent signals | APOE4-3xHA uptake by recipient cells (anti-HA fluorescent signal) ([3]; versus GFP-Flag + APOE4-3xHA): more and stronger fluorescent signals | APOE2-3xHA level in recipient neuronal cells (anti-HA bands) ([4]; versus APOE2-3xHA alone): higher levels of APOE | APOE3-3xHA level in recipient neuronal cells (anti-HA bands) ([4]; versus APOE3-3xHA alone): higher levels of APOE | APOE4-3xHA level in recipient neuronal cells (anti-HA bands) ([4]; versus APOE4-3xHA alone): higher levels of APOE | APOE3-3xHA uptake by brain slices (anti-HA fluorescent signal) (mouse brain slices): more and stronger fluorescent signals

B2: HILPDA P01: synthesized mouse HILPDA polypeptide, SEQ ID NO: 2 (peptide, listed as Mus musculus)
chain: MKFMLNLYVLGIMLTLLSIFVRVMESLGGLLESPLPGSSWITRGQLANTQPPKGLPDHPSRGVQ
APOE3-3xHA uptake by recipient cells (anti-HA fluorescent signal) (ES-2 cells): Promote the Clearance | uptake of human low-density lipoprotein particles (Dil signal intensity) [1]: Promote the Uptake

B3: HILPDA P02: synthesized rat HILPDA polypeptide, SEQ ID NO: 12 (peptide, listed as Rattus norvegicus)
chain: MKYMLNLYVLGVMLTLLSIFVRLMESLGGLLENPLPGSSWITRGHLANTQPPRGLPDHPSRGVQ
low-density lipoprotein cholesterol level in plasma (SD rats [5]): significantly reduced
